± gives the standard deviation of the averaged measurements.
Test system: ATP
Experiment: switch fluorescence ratio, 500 uM ATP over buffer (Cy3 cluster intensity, sum of 5 cycles each) (fold (ratio)); higher = stronger signal-on switching upon ATP binding; sequences stand for … in TCGTCGGCAGCGTCAGATGTGTATAAGAGACAGTTTTTTTTTTTTTTTTTTTTTTTTT…TC
Conditions: aptamer strand: ATP DNA aptamer (quencher-CACCTGGGGGAGTATTGCGGAGGAAGG + anchor), 100 nM annealed; ATP concentration: 500 uM
In short: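 Clusters with intensities outside 100-1000 RFU were excluded. The remaining Cy3-labelled switching-strand clusters on a modified Illumina MiSeq flow-cell had been annealed to 100 nM quencher-labelled ATP aptamer and imaged in selection buffer, then after 15 min with 500 uM ATP at 22 °C, for five cycles separated by NaOH stripping and re-annealing. The fluorescence ratio, averaged per switch-domain sequence, is each cluster's summed target-cycle Cy3 intensity over its summed buffer-cycle Cy3 intensity.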
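Also: ATP exposure 15 min at 22 °C before imaging.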

Sequence	switch fluorescence ratio
GGGGGGAAGT	1.01 ± 0.022
GGGGGGAATT	1.05 ± 0.1
GGGGGGACAC	1.031 ± 0.0019
GGGGGGAGAG	0.989 ± 0.045
GGGGGGAGTT	0.999 ± 0.038
GGGGGGATAG	1 ± 0.031
GGGGGGATGG	1.07 ± 0.23
GGGGGGATTC	1.01 ± 0.019
GGGGGGCAAC	1.03 ± 0.099
GGGGGGCAGC	1 ± 0.017
GGGGGGCATA	1.01 ± 0.012
GGGGGGCCCA	1.0208 ± 0.00082
GGGGGGCCCG	1.35 ± 0.45
GGGGGGCCGA	1.01 ± 0.03
GGGGGGCCTA	0.988 ± 0.046
GGGGGGCGGC	1.01 ± 0.046
GGGGGGCTCG	0.973 ± 0.064
GGGGGGCTGT	0.973 ± 0.047
GGGGGGCTTC	0.975 ± 0.019
GGGGGGGATA	1 ± 0.038
GGGGGGGCAC	1.01 ± 0.029
GGGGGGGGG	1 ± 0.04
GGGGGGGTAA	0.993 ± 0.027

Sequence	switch fluorescence ratio
GGGGGGGTCC	0.99 ± 0.025
GGGGGGGTCT	0.973 ± 0.044
GGGGGGTAA	1.01 ± 0.019
GGGGGGTAAA	1.04 ± 0.075
GGGGGGTACC	1.08 ± 0.13
GGGGGGTAGG	1.01 ± 0.029
GGGGGGTCAG	1.01 ± 0.025
GGGGGGTCTC	0.996 ± 0.029
GGGGGGTGTA	1 ± 0.055
GGGGGGTTAA	1.02 ± 0.028
GGGGGGTTGG	0.989 ± 0.031
GGGGGTAAGG	0.987 ± 0.034
GGGGGTACAC	1.01 ± 0.025
GGGGGTACGT	0.989 ± 0.03
GGGGGTATGG	0.983 ± 0.032
GGGGGTATGT	0.997 ± 0.02
GGGGGTCAGC	1 ± 0.025
GGGGGTCG	1.03 ± 0.081
GGGGGTCGCG	0.991 ± 0.034
GGGGGTCGGG	1 ± 0.036
GGGGGTGCAG	0.975 ± 0.011
GGGGGTGGG	1.03 ± 0.069
GGGGGTGTCA	0.968 ± 0.0099

Sequence	switch fluorescence ratio
GGGGGTTACG	0.998 ± 0.03
GGGGGTTAGA	1 ± 0.035
GGGGGTTATA	0.965 ± 0.016
GGGGGTTCCG	0.98 ± 0.021
GGGGGTTGCA	0.965 ± 0.016
GGGGGTTGGG	1.01 ± 0.043
GGGGGTTTAA	1.02 ± 0.014
GGGGGTTTGC	0.991 ± 0.059
GGGGGTTTTG	0.993 ± 0.038
GGGGTAAGGG	1 ± 0.028
GGGGTAAGGT	0.99 ± 0.036
GGGGTAATCA	0.999 ± 0.018
GGGGTAATCC	1.07 ± 0.14
GGGGTAATGG	0.993 ± 0.034
GGGGTACGTA	1 ± 0.08
GGGGTACGTT	1 ± 0.032
GGGGTACTAC	1.003 ± 0.0053
GGGGTAGCCT	1 ± 0.04
GGGGTAGGTG	1.08 ± 0.068
GGGGTAGTGG	0.981 ± 0.05
GGGGTAGTTT	1.02 ± 0.027
GGGGTCACGG	1.006 ± 0.0027
GGGGTCAGCC	1.06 ± 0.13

Sequence	switch fluorescence ratio
GGGGTCCAAG	1 ± 0.017
GGGGTCGACG	1.033 ± 0.0092
GGGGTCGGGC	0.998 ± 0.015
GGGGTCGGTT	1.01 ± 0.051
GGGGTGAATG	0.974 ± 0.04
GGGGTGACGG	1.004 ± 0.0055
GGGGTGAGGG	0.971 ± 0.032
GGGGTGAGTT	0.931 ± 0.072
GGGGTGATCT	1.02 ± 0.034
GGGGTGATGC	1.07 ± 0.061
GGGGTGATGG	1.02 ± 0.02
GGGGTGATGT	0.9803 ± 0.0066
GGGGTGCTAT	1.01 ± 0.043
GGGGTGGCCA	0.99 ± 0.0098
GGGGTGGGCG	1.01 ± 0.058
GGGGTGGTTA	0.9948 ± 0.005
GGGGTGTCGG	1.05 ± 0.14
GGGGTGTGTG	0.986 ± 0.021
GGGGTGTTTG	0.981 ± 0.022
GGGGTTAAAA	0.973 ± 0.024
GGGGTTAAGG	0.978 ± 0.029
GGGGTTAAGT	0.98 ± 0.014
GGGGTTAATA	1 ± 0.067

Sequence	switch fluorescence ratio
GGGGTTACGC	1.03 ± 0.059
GGGGTTAGGA	0.979 ± 0.019
GGGGTTATGT	0.979 ± 0.021
GGGGTTATTT	0.988 ± 0.038
GGGGTTCAGC	0.978 ± 0.038
GGGGTTCCGG	0.941 ± 0.032
GGGGTTCTGA	0.974 ± 0.032
GGGGTTGGAA	0.9873 ± 0.0056
GGGGTTGGG	1.015 ± 0.0031
GGGGTTGGGC	1 ± 0.028
GGGGTTGTAA	0.9938 ± 0.0056
GGGGTTTACT	1.01 ± 0.021
GGGGTTTGCT	0.973 ± 0.033
GGGGTTTGTA	0.98 ± 0.027
GGGGTTTTCC	1.01 ± 0.014
GGGGTTTTTA	0.995 ± 0.034
GGGTAAGATG	0.992 ± 0.016
GGGTAAGGTG	1.3 ± 0.091
GGGTAAGGTT	0.985 ± 0.028
GGGTAAGTTG	0.962 ± 0.05
GGGTAATAAA	1.019 ± 0.0052
GGGTACCTGT	1.01 ± 0.034
GGGTACTAGT	1.05 ± 0.023

Sequence	switch fluorescence ratio
GGGTACTGAT	1.01 ± 0.024
GGGTACTTTT	1 ± 0.0091
GGGTAGAGGA	0.99 ± 0.03
GGGTAGAGTG	1.006 ± 0.0019
GGGTAGCTAT	0.9739 ± 0.0049
GGGTAGGGGC	1.02 ± 0.026
GGGTAGTGTA	0.995 ± 0.012
GGGTATAACG	0.974 ± 0.035
GGGTATAGTT	0.992 ± 0.024
GGGTATCGAG	1.01 ± 0.019
GGGTATGAGG	0.976 ± 0.032
GGGTATGCAA	1.001 ± 0.0093
GGGTATGCGA	0.984 ± 0.015
GGGTATGGAG	1.02 ± 0.02
GGGTATGGGA	0.99 ± 0.017
GGGTATGGGC	0.955 ± 0.014
GGGTATGTGA	0.961 ± 0.037
GGGTATTACT	1.03 ± 0.017
GGGTATTATA	0.996 ± 0.03
GGGTATTATG	1.02 ± 0.028
GGGTCAATAG	1.42 ± 0.051
GGGTCACGTT	0.997 ± 0.032
GGGTCAGACG	1.06 ± 0.086

Sequence	switch fluorescence ratio
GGGTCATTAA	0.9905 ± 0.0088
GGGTCCAGGG	1.228 ± 0.0082
GGGTCCTACG	1.12 ± 0.037
GGGTCGGATG	1.03 ± 0.033
GGGTCGGGGC	1.02 ± 0.017
GGGTCGGGGG	0.994 ± 0.04
GGGTCTAATT	0.9917 ± 0.0014
GGGTCTCGTT	1.01 ± 0.013
GGGTCTGACT	0.9998 ± 0.0017
GGGTCTGTAA	1.42 ± 0.61
GGGTCTTGGG	0.9482 ± 0.008
GGGTGAAACA	0.987 ± 0.069
GGGTGAAAGC	1 ± 0.017
GGGTGAACTC	0.988 ± 0.031
GGGTGACGAG	1 ± 0.038
GGGTGACGCG	1.01 ± 0.022
GGGTGATCCT	1.02 ± 0.073
GGGTGATGGG	0.977 ± 0.032
GGGTGCAGGC	0.675 ± 0.032

— the supplement of paper PMC10126150
